Like-named read-outs stand apart in the source and are kept apart here. Blank lines part the entries; values can stand above or below the binder they belong to. Where no end group is shown, it is not given here.
B1: TAMRA-labeled α-synuclein peptide (peptide)
peptide: GYQDYEPEA
modifications: also: TAMRA fluorophore, position not given here

What was measured:
Assay in all cases: FP
N2.13 = biological target: N2.13
N2.1 = biological target: N2.1
N2.8 = biological target: N2.8
N2.10 = biological target: N2.10
N2.4 = biological target: N2.4
N2.14 = biological target: N2.14
N2.7 = biological target: N2.7
N2.2 = biological target: N2.2
N2.6 = biological target: N2.6
N2.9 = biological target: N2.9
N2.3 = biological target: N2.3
N2.11 = biological target: N2.11
N2.15 = biological target: N2.15
I55V/N2.12 = biological target: I55V/N2.12
[1] = biological target: B1
[2] = biological target: B1

Binder: B1
Kd (N2.13): 20.3 nM
Kd (N2.1): 14.3 nM
Kd (N2.8): 28.5 nM
Kd (N2.10): 31.6 nM
Kd (N2.4): 14.3 nM
Kd (N2.14): 16.2 nM
Kd (N2.7): 15.1 nM
Kd (N2.2): 23 nM
Kd (N2.6): 25.1 nM
Kd (N2.9): 28 nM
Kd (N2.3): 11.4 nM
Kd (N2.11): 21.6 nM
Kd (N2.15): 23.1 nM
Kd (I55V/N2.12): 5.7 nM

B2: N2.5 VHH (VHH)
VHH: QGQLVESGGGSVQAGGSLRLSCAASGIDSSSYCMGWFRQRPGKEREGVARINGLSGVKTAYADSVKDRFTISRDNAENTVYLQMNSLKPEDTAIYYCAAKSSPGYCGGTWFSFGYWGQGTQVTVSS
Kd [1]: 55.3 nM

B6: N2.17 reversion mutant F96 (VHH)
VHH: QGQLVESGGGSVQAGGSLRLSCAASGIDSSSYCMGWFRQRPGKEREGVARINGWGGVKTAYADSVKDRFTISRDNAENTVYLQMNSLKPEDTAIYYCAAKFSPGYCGGTWFNFGYWGQGTQVTVSS
Kd [2]: 72.2 nM

B8: N2.16 VHH (VHH)
VHH: QGQLVESGGGSVQAGGSLRLSCAASGIDSSSYCMGWFRQRPGKEREGVGRINGWSGVKTAYADSVKDRFTISRDNAENTVYLQMNSLKPEDTAIYYCAAKSSPGYCGGTWYNFGYWGQGTQVTVSS
Kd [1]: 11.2 nM

B10: N2.17 reversion mutant L52b (VHH)
VHH: QGQLVESGGGSVQAGGSLRLSCAASGIDSSSYCMGWFRQRPGKEREGVARINGLGGVKTAYADSVKDRFTISRDNAENTVYLQMNSLKPEDTAIYYCAAKSSPGYCGGTWFNFGYWGQGTQVTVSS
Kd [2]: 30 nM

Further binders by falling Kd [2], results first:

Kd [2]: 27.5 nM
B5: N2.17 reversion mutant S100d (VHH)
VHH: QGQLVESGGGSVQAGGSLRLSCAASGIDSSSYCMGWFRQRPGKEREGVARINGWGGVKTAYADSVKDRFTISRDNAENTVYLQMNSLKPEDTAIYYCAAKSSPGYCGGSWFNFGYWGQGTQVTVSS

Kd [2]: 18.6 nM
B7: N2.12 reversion mutant F96 (VHH)
VHH: QGQLVESGGGSVQAGGSLRLSCAASGIDSSSYCMGWFRQRPGKEREGVGRINGWRGIKTAYADSVKDRFTISRDNAENTVYLQMNSLKPEDTAIYYCAAKFSPGYCGGTWSNFGYWGQGTQVTVSS

Kd [2]: 16.9 nM
B9: N2.12 reversion mutant L52b (VHH)
VHH: QGQLVESGGGSVQAGGSLRLSCAASGIDSSSYCMGWFRQRPGKEREGVGRINGLRGIKTAYADSVKDRFTISRDNAENTVYLQMNSLKPEDTAIYYCAAKSSPGYCGGTWSNFGYWGQGTQVTVSS

Kd [2]: 14.1 nM
B12: N2.12 reversion mutant G53 (VHH)
VHH: QGQLVESGGGSVQAGGSLRLSCAASGIDSSSYCMGWFRQRPGKEREGVGRINGWGGIKTAYADSVKDRFTISRDNAENTVYLQMNSLKPEDTAIYYCAAKSSPGYCGGTWSNFGYWGQGTQVTVSS

Kd [2]: 11.9 nM
B11: N2.12 reversion mutant S100d (VHH)
VHH: QGQLVESGGGSVQAGGSLRLSCAASGIDSSSYCMGWFRQRPGKEREGVGRINGWRGIKTAYADSVKDRFTISRDNAENTVYLQMNSLKPEDTAIYYCAAKSSPGYCGGSWSNFGYWGQGTQVTVSS

Kd [2]: 11 nM
B4: N2.17 reversion mutant S100f (VHH)
VHH: QGQLVESGGGSVQAGGSLRLSCAASGIDSSSYCMGWFRQRPGKEREGVARINGWGGVKTAYADSVKDRFTISRDNAENTVYLQMNSLKPEDTAIYYCAAKSSPGYCGGTWSNFGYWGQGTQVTVSS

Kd [2]: 8.2 nM
B3: N2.12 reversion mutant A49 (VHH)
VHH: QGQLVESGGGSVQAGGSLRLSCAASGIDSSSYCMGWFRQRPGKEREGVARINGWRGIKTAYADSVKDRFTISRDNAENTVYLQMNSLKPEDTAIYYCAAKSSPGYCGGTWSNFGYWGQGTQVTVSS
